Experimental findings from the domain aggregation screens of Martell et al. (2025) are described below.

A short description of the series: soluble fraction after stress (log2 fold change); higher = more stays soluble; pooled small domains, quantitative proteomics. To be noted: stress: pH 4. The gist of the method:
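Pooled custom libraries of small protein domains were subjected to pH 4 and measured by high-throughput quantitative proteomics. The log2 fold change in soluble amount per domain is reported, higher values meaning more remained soluble. This is used as a measure of aggregation propensity.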
In the case of “HMPQISQDDLMEAGLIVGKEAKQRRIKLGEILGIGYVNAKQLPKRLQLFQVAKSDFEQAVQQIDG”, the “soluble fraction (log2)” value amounted to 0.134.
As to “HMPQKSDLTMEEYNKLGLAGGSGSRKLREQVGIRLSVGYGNSKQFYNRLHTFGISLDELKTAVEEVKNG”, the “soluble fraction (log2)” value came to 0.295.
Take “HMPQNVSVPDVTNMTQAEAESKLKEKNLAVGNIIPELSTTVEKDKVTRTNPESGSNVRKNSKVDIYVSQG”: the “soluble fraction (log2)” value turned out to be 0.327.
Under “HMPQPDVIEVRQGIVTGMRPDRRTGWLRDEEDAAGEPKSFSIDVITPKGRTPGKGAVVTYTLTNGKITEVK” stands 0.143; under “HMPRELKVRDVSHQHAGHAGWREGGETHFEVDMKADVFAGTSRVAAHRMVNKVLANELASRVHALQLNLS”, -0.308; under “HMPRENLAYTLIMDGIVQHKNLPRASVTEAWLKQELQKAGINDFRQVLIAGIDSKGQLYFQPKQK”, -0.392.
As for “HMPRPLVAPMPGLIVRVTAVVGDSVDAGQGLVVMEAMKMENELRTTTAGVVKTVHVQPGVAVEKGALLIEF”, the figure is -0.766; as for “HMPRTEILMVDEEMEGERLDAFVAEQLDELSRSLVKTLIENGEIRVDGKQQKPSYRLKAGEEIIVEIPA”, -0.438.
As for “HMPSDTNLIGKTGIAYTTLRPGGTALIDDRKVDVVADSEYIEKDKKIKVIRVEGIKVVVTAVK”, the figure is 0.194.
Turning to “HMPSGRIRWFDAKKGYGFIAGDDGKDVFLPQTALPQGVRNPRKGAKVEYSVIEGNRGQVAMGVTMV”, the “soluble fraction (log2)” value turned out to be 0.0307.
In the case of “HMPSHALFWTLLKEVPGYDPHYKDVIKEGIVHEHSGGRTTSLSEMYTKYPREYSLMIEAMKG”, the “soluble fraction (log2)” value is -0.326.
Take “HMPSKTFYNLSQEKQQKIIDASEKEFSNNLYQDVSLNQIIKNSNISRGSFYMYFTDKEDLYFYLLNEY”: the “soluble fraction (log2)” value is no less than 0.43.
For “HMPSLGADIRALRKSRKMTLVALADALGRSVGWLSQVERDKSHATIADLGRMAEVLDVSISSFL”, the “soluble fraction (log2)” value is -0.209.
As to “HMPSLSAILHDARVAAGLSMRQASAASGLSIGFISMLEQGKVQDISLQRLGRLVTAYDLEPLDVIEAAG”, the “soluble fraction (log2)” value is -0.848.
As for “HMPSSAYGPYKNVFLSNSELTKLKNELPTSWEHYINRLSEYMRSTGRQYQSHAATILRWAATDRNS”, the figure is 0.0263.
Regarding “HMPSSFLVKVTADALNIRSGPGVANRITGTIKDKGTYTIVDTKDDWGKLKSGVGWIHLGYTKRLD”, the “soluble fraction (log2)” value came out at 0.0923.
As to “HMPSSQQVMRRLATVGPDKTLEELQRQHDAHLRKYGEFNDFRGERQQMRQEMERIKEAKQGTGPYAHLMG”, the “soluble fraction (log2)” value was -0.0742.
“HMPTAGYMTVTPDRVKEGQQFLATLRPPYVLKADGLAAGKGVLILPELEEAQRELEEMLGGFLGELSVNR”: the “soluble fraction (log2)” value is -0.303.
As to “HMPTERLSMRRIRELLRLRFEVGLSTRLIATALGISKGAVGDYLQRAQVAGLGWPLPENLNDAALERRLFP”, the “soluble fraction (log2)” value is no less than 0.43.
Regarding “HMPTGRVVIPLNRLTASDVARILDEAYGRDHNFEVVKPSRLAKGIIVIGPKSEIDGIKELLAH”, the “soluble fraction (log2)” value is -0.173.
“HMPTLLGYKHILSAWNPDTNTVFRTSYGYDGEYGSREEAMQALIKMIQEGGKATPRGIEESEVPIY”: the “soluble fraction (log2)” value is 0.0029.
Under “HMPTLSKVGSQGEEVRQIQTKLKNWGYLNDRVDGIYGPKTRDAVIWFQKKNGLVADGIAGPATLKAMGIFT” stands no less than 0.43.
Under “HMPTMVAQINEIVQAKLPGSGLKDYTIRLVESQRDGVVVWVNGTRYLGVDEVAEPQVQALLKEAVAEWERS” stands -0.942; under “HMPTQGELAILRVLWEQGPSTVRAVWEKLNSQSGTGYTTALKLMQIMAQKGLVSRDESQKTHVYRA”, -0.511; under “HMPTTRPEAEAHYETHQRYHDLQIDVEGREAFKVATGSLTLVQEFDEKDDYDLSIPTPRSPAILLTT”, -0.208.
Regarding “HMPVFYVTGNRVNFRAGPSTGDRVIGSLSQGAAVEVLGPTDDAWINIRDSDGRVGYMSAQFLSQ”, the “soluble fraction (log2)” value is -0.213.
Regarding “HMPVLDETVPAALDGERIDRVVALLADVSRNRAGIAIAAGSVRLDGAVVTQRSRKVRADEELVVDGLER”, the “soluble fraction (log2)” value was -0.00165.
Under “HMPVNEEFKRLIDKIKYEFSINQAQISERLGVKSTYLSDMINGRVPYNESMQKKIHEVFHIG” stands 0.114.
Under “HMPVNGEFIERIKVMVLENKAKGKKERLTKTRMHQLLQEEGYKGSYSAFTHQVRIIEEELGVNQKEAH” stands 0.235; under “HMPVSRMRARHEALARGVMGIHAGGFSAVYGYRKVWHGLIGKGWDPGEVGRDQVMNIMRGLGMQGVRR”, 0.22.
On to “HMPVSVAEQKQILAEALQERGHATFRELIENADNRMIVVGRFLALLELYRDGTVRFEQERALGELTIHWEE”, for which the “soluble fraction (log2)” value was -1.22.
As for “HMPYIVNHIHLKSEDPKITADWFVKAFNFEIVSDVVRHFGDRFIVTKAEGGMTINISGVRDGEEL”, the figure is 0.262; as for “HMPYNNLADAPASWKKLDDTPLTLGQVNWIAKIYDALVAKGMEKGAAAGTAISRFKKSFKVADGKWVQV”, 0.173; as for “HMPYNRRYLISNADGALYTVEENGLVKLEETNLTAELFETRGMQDIPDGKLLITLHDPTILYWHDSENLFP”, -2.32.
For the sequence “HMPYSPTPGSAPARLIAHLQEHGDSVNRTAIAELLQVDRKNVHNYLARAVTHGLLLRHGGGAYSLP”, the “soluble fraction (log2)” value stood at 0.207.
Consider “HMQADEENPKYPVITDGVIQLEVLESIDKTEEWLVERLAKDGYNNVSEIFIAEYENGNLSIVT”, for which the “soluble fraction (log2)” value was -0.742.
“HMQADPYTVLGVLRDVTDGELKREYRKLVREHHPDALIAQGVPQEFVDIANNKLAVINAAYERIAKQRGL”: the “soluble fraction (log2)” value is -0.293.
As for “HMQAGILTDTAAKNARIKKIDTERLEAELDQKRIVIVTGFQGVDRNQNITTLGRGGSDTSAVALAAAVSIT”, the “soluble fraction (log2)” value came out at 0.0198.
As to “HMQAKDVEIPNFVGKTLAEANADNKDNFNFVVESKYDASKELGVILEQEPAADSKLVKSGSQITLKV”, the “soluble fraction (log2)” value was 0.0557.
As for “HMQALDNNDALEEIIKKVITENPSQVTEFRNGKDSLMNFLVGKVMAASGGKANPKTLPETIEKIIK”, the figure is 0.277; as for “HMQAMDYEGFKKEILKMSDIDLSLYKEKQMKRRIDSLIRKNGYEHYEDYVQALKQDSGLYNEFINYLTI”, -1.33.
As to “HMQANLPFSELLADVDRGLISDVTIKGDQVSGHYTDGRTFNTFIPPEADLVRRLTEKNVRIAAVPD”, the “soluble fraction (log2)” value is -0.00341.
For the sequence “HMQAPAFDYSKVQEGVTVNHKIFGDGTVSWIDKARKYIRVQFSVGEKMFTMETAFVQGFLSL”, the “soluble fraction (log2)” value is -1.03.
As for “HMQAPVDPIVLGKMGSSYGIRGWLRVFSSTEDAESIFDYQPWFIQKAGQWQQVQLESWKHHNQDMIIKLN”, the “soluble fraction (log2)” value is 0.179.
Take “HMQARLPFSFAKRHGVILLAATGEGQSDVIYKSGFDIGALAEVRRFVAGEIALKEVDGPSFDRQLTLTYQN”: the “soluble fraction (log2)” value was -1.34.
Consider “HMQARSQQTIQTLFKAAAQILDKEGEAGLSTNKVAAAAGFSIGTLYQYFPSKEVLIQAMAAR”, for which the “soluble fraction (log2)” value stood at 0.0662.
As for “HMQASISVDEAKSIALNYAKFTADQVVYTKSELDYDDGRAEYEIEFYAGGKEYSFTIDAVSGTVLEMEI”, the “soluble fraction (log2)” value is 0.107.
Under “HMQATDEEIENFTSSAITAYKLTKEEGYIISMRDMKPIMEIVKTEYPMANGKVVSKVMNNYING” stands 0.22.
Under “HMQDELSSSVIEEAVVVLLLRAANIDGKKDEQEIEAIKRLIIQQFNYDEEKADILITSASEK” stands -0.191; under “HMQDGTILPGQKTAIRSLATSGGYDSQDLDTYLATTYGKSIDGLTRTEGADVIKAFQAGTVAK”, 0.165.
